The target in one assay is VEGFA. The assay is described as follows: ELISA on coated VEGFA. How it is done: (§1) The affinity of Fv2mabs consisting of the tandem Fv combinations of anti-TNF-α and anti-VEGFA; and anti-TNF-α and anti-IL17A was measured by using ELISA method. Antigens such as TNF-α, VEGFA, and IL-17A, were fixed on an immune-plate at a concentration of 100 ng/well (96 well) by using pH 7.4 PBS as a coating buffer through a reaction at 4° C. overnight. Each well was once washed with PBST 200 μl, and then a surface blocking reaction was performed at room temperature with 5% skim milk for one to two hours. Subsequently, after washing each well twice with PBST 200 μl, a serial dilution was performed with an appropriate bispecific Fv2mab to measure and a control parental antibody from an appropriate concentration in an interval of ½ to ⅕ for a reaction at room temperature for one to two hours. Then, each well was washed three times with PBST 200 μl to remove unbound antibodies, and a dilution was performed with horseradish peroxidase (HRP)-conjugated anti-human-Fc-HRP (Millipore, USA) at a ratio of 1:3000 for a reaction at room temperature for one hour. Then, each well was washed three times with PBST 200 μl to remove unbound detection antibodies. A color reaction of HRP was induced by using TMB solution (GEhealthcare, USA) in a volume of […], and the reaction was terminated by using a stop solution (2.5 M H2SO4, 100 μl/well).
On the technique in general: In an ELISA, binding on a coated surface is turned into a signal by an enzyme label.

The next assay concerns the target T1, TNF-α (UniProt P01375 77-233).
T1 construct: Soluble antigen used as analyte in the OCTET assay and coated in ELISA; also called TNF-a
Nature of the assay: ELISA on coated TNF-α. How it is done: as §1

The values that follow come from patent publication US20190389973A1 (Y BIOLOGICS, published 2019).

For orientation: EC50 (read off the curve) means the midpoint of the concentration-response curve.

T1 sequence (P01375 77-233 limits assumed): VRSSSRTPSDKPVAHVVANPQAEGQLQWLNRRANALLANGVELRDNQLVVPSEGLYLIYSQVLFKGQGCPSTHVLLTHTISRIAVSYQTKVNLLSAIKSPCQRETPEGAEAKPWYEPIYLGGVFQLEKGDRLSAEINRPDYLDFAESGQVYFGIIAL
Chain of VEGFA (P15692 whole entry): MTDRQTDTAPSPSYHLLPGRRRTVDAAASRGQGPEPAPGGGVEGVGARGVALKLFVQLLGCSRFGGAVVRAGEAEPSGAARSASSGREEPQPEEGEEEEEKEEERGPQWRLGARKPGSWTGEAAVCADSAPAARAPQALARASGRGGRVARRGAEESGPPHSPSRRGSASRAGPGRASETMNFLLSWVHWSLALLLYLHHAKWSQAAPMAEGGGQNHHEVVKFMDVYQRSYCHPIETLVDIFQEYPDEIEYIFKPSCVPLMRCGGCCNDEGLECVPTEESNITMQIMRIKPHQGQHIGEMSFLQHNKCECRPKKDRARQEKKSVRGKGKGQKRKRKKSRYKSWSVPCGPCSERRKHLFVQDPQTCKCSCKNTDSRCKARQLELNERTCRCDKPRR

B1: anti-VEGFA AB (antibody, V domains shown)
VH: QVTLKESGPTMVKPTQTLTLTCTFSGFSLSTSGVAVGWIRQPPGQALEWLALIYWDNDKRYSPSLKNRLTVAKDTSKSQVVLTMTNMDPMDTATYYCAHGDGWLFDFWGQGTLVTVSS
VL: QPVLTQPPSVSGAPGQRVTISCTGSNSNIGAGHDVHWYQQLPGAAPKVVIYGNTNRASGVPERFSGSKSATSASLAITGLQAEDEADYYCQSYDNSLSGYVFGTGTKVTVL
notes: The sheet calls it 'parantal antibody'; also called anti-VEGFA antibody; F6 (in-house)
B1: the “EC50 (read off the curve)” value in the assay with VEGFA was about 0.3 nM. Also, the binding result with TNF-α was “binds”.
